Several values for one entry are separate records, joined by “and”; a condition that tells them apart may be missing. Equal entries are not always repeated. Where two headings read alike, the source gives them in different places.
Assays:
cross-linking = biological target: the molecule itself; test: cross-linking
[1] = biological target: T1, Myo4p-C (amino acids 978–1,471) (S. cerevisiae, UniProt P32492 978-1471); test: ITC
T1 sequence: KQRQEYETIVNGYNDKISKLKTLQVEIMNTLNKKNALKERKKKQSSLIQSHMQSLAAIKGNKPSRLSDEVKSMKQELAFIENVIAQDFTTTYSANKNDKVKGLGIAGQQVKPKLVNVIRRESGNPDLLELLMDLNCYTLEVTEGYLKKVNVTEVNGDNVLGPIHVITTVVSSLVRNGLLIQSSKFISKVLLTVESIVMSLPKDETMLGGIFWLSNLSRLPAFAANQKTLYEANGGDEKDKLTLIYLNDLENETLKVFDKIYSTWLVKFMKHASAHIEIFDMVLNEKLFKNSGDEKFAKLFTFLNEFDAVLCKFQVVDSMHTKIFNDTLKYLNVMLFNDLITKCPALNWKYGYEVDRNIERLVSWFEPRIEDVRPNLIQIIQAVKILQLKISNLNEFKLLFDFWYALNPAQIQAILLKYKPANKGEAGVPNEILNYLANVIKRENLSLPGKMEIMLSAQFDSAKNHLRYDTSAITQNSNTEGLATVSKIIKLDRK

[2] = biological target: T1, Myo4p-C (amino acids 978–1,471); test: quantitative mass spectrometry with heavy isotope-labeled peptides
[3] = biological target: T1, Myo4p-C (amino acids 978–1,471); test: static light scattering coupled to SEC
[4] = biological target: T1, Myo4p-C (amino acids 978–1,471); test: quantitative mass spectrometry with heavy isotope-labeled peptides; remark: listed apart in the source
She2p;She3p;Myo4p-C [5] = biological target: T2, She2p;She3p;Myo4p-C (Saccharomyces cerevisiae;Saccharomyces …, UniProt P36068;P38272;P32492 1-246;1-425;978-1471, ||); test: SLS
She2p = She2p (Saccharomyces cerevisiae, UniProt P36068 1-246); test: SLS
She2p;She3p;Myo4p-C [6] = biological target: T2, She2p;She3p;Myo4p-C; test: SEC
[7] = biological target: T3, She2p;She3p;Myo4p full-length (Saccharomyces cerevisiae;Saccharomyces …, UniProt P36068;P38272;P32492 1-246;1-425;1-1471, ||); test: single-molecule TIRFM
She2p;She3p;Myo4p-C [8] = biological target: T2, She2p;She3p;Myo4p-C; test: EMSA
She3p;Myo4p-C = biological target: T4, She3p;Myo4p-C (Saccharomyces cerevisiae;Saccharomyces …, UniProt P38272;P32492 1-425;978-1471, |); test: EMSA
T4 sequence 1: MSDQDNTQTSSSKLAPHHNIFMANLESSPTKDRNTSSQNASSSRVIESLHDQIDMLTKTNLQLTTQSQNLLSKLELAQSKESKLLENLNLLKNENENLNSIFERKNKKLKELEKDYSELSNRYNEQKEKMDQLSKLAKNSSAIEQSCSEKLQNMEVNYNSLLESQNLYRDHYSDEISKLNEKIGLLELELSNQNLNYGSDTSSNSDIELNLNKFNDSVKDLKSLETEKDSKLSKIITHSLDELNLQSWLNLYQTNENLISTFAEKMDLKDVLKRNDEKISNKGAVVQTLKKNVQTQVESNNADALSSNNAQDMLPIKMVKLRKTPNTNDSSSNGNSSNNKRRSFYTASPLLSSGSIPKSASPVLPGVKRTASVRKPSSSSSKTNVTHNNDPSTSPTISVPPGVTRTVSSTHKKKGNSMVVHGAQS
T4 sequence 2: T1 sequence

[9] = biological target: T3, She2p;She3p;Myo4p full-length; test: single-molecule TIRFM; remark: listed apart in the source

T2 sequence (P36068 whole entry, one chain of several): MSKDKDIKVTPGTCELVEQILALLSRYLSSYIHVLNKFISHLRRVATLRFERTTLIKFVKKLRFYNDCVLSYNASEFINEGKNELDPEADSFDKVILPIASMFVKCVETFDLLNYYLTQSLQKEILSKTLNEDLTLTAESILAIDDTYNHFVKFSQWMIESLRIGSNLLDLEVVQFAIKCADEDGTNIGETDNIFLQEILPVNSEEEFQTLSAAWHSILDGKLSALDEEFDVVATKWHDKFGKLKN
Chain of She2p (P36068 whole entry): as the sequence (P36068 whole entry, one chain of several) above
T3 sequence (P36068 whole entry, one chain of several): as above

B1: She3p N-terminal fragment (amino acids 1–234) (domain or fragment)
chain: MSDQDNTQTSSSKLAPHHNIFMANLESSPTKDRNTSSQNASSSRVIESLHDQIDMLTKTNLQLTTQSQNLLSKLELAQSKESKLLENLNLLKNENENLNSIFERKNKKLKELEKDYSELSNRYNEQKEKMDQLSKLAKNSSAIEQSCSEKLQNMEVNYNSLLESQNLYRDHYSDEISKLNEKIGLLELELSNQNLNYGSDTSSNSDIELNLNKFNDSVKDLKSLETEKDSKLSK
B1: binds (cross-linking).

B2: She3p, full-length (natural protein)
chain: T4 sequence 1
B2 was tested, and the “stoichiometry N” value [1] was 1.93 She3p:Myo4p, the “stoichiometry N” value (cross-linking) was 2 and the “stoichiometry N” value [2] was 2.56 She3p:Myo4p-C. For the same binder, the “stoichiometry N” value [3] was 2 She3p/Myo4p-C and the “stoichiometry N” value [4] was 2.12 She3p:Myo4p-C and 2.23 She3p:Myo4p-C.

B3: ASH1-E3-77-tRNA (structured_RNA)
RNA: GGCUACGUAGCUCAGUUGGUUAGAGCAGCGGCCGAGAGAAUUGAUACAUGGAUAACUGAAUCUCUUUCAACUAAUAAGAGACAUUAUCACGAAACAAUUGUACAUUUCUCUUGGCCGCGGGUCACAGGUUCGAAUCCCGUCGUAGCCACCA
B3: binds (She2p;She3p;Myo4p-C [5]); binds (She2p).

B4: ASH1-E3-51 (structured_RNA)
RNA: AUGGAUAACUGAAUCUCUUUCAACUAAUAAGAGACAUUAUCACGAAACAAU
B4: binds (She2p;She3p;Myo4p-C [6]); binds (She2p).

B5: IST2 + 22-nt 3' overhang (mixed)
RNA: GGGAUGCUGGAGUGAAGAAUGUCACGAACAAUUCUAAGACAACCGAAUCCUCUUCCUCUUCAUCGGCGGCAAAGGAAAAACCAAAA
DNA: TTTTGGTTTTTCCTTTGCCGCC
B5: binds [7].

B6: IST2-tRNA (structured_RNA)
RNA: GGCUACGUAGCUCAGUUGGUUAGAGCAGCGGCCGGAUGCUGGAGUGAAGAAUGUCACGAACAAUUCUAAGACAACCGAAUCCUCUUCCUCUUCAUCUGGCCGCGGGUCACAGGUUCGAAUCCCGUCGUAGCCACCA
B6: binds (She2p).

B7: ASH1-E3-77 (structured_RNA)
RNA: GGGAGAGAAUUGAUACAUGGAUAACUGAAUCUCUUUCAACUAAUAAGAGACAUUAUCACGAAACAAUUGUACAUUUCUCU
B7: binds (She2p;She3p;Myo4p-C [8]); binds (She3p;Myo4p-C).

B8: ASH1-E3-77 + 3' overhang (mixed)
RNA: GGGAGAGAAUUGAUACAUGGAUAACUGAAUCUCUUUCAACUAAUAAGAGACAUUAUCACGAAACAAUUGUACAUUUCUCUCCUUGUCUGUGCUAAAUAAACUAC
DNA: GTAGTTTATTTAGCACAGACAAGG
B8: binds [9].

Reference: PMC3871432 (The Journal of Cell Biology, 2013)
